Measured values as given in patent US20200283478A1 (Genentech, published 2020).
Read-outs that look alike come from different tables or passages of the source. Blank lines part the entries; values can stand above or below the binder they belong to. Square brackets hold non-standard residues; d marks the D form. Ends that are not written are not given here. * marks the point of attachment. hArg = N=C(N)NCCCC[C@H](N)C(=O)O; Pentanoyl = CCCCC(=O)*

How the values were obtained:
PCSK9Δhelix [1] = molecular target: T1, PCSK9Δhelix (human, Chemically biotinylated in the phage ELISAs; the site is not given.); experiment: phage spot ELISA
T1 construct: construct M1-Q692 with engineered TEV site, cleaved by TEV; also called His-PCSK9Δhelix; open groove PCSK9Δhelix
T1 sequence (prodomain, as listed by the source mutant limits assumed, chain 1 of 2): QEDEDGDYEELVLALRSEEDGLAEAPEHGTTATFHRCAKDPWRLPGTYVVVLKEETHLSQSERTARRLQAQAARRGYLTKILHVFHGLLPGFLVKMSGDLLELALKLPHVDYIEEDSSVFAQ
T1 sequence (chain, as listed by the source mutant limits assumed, chain 2 of 2): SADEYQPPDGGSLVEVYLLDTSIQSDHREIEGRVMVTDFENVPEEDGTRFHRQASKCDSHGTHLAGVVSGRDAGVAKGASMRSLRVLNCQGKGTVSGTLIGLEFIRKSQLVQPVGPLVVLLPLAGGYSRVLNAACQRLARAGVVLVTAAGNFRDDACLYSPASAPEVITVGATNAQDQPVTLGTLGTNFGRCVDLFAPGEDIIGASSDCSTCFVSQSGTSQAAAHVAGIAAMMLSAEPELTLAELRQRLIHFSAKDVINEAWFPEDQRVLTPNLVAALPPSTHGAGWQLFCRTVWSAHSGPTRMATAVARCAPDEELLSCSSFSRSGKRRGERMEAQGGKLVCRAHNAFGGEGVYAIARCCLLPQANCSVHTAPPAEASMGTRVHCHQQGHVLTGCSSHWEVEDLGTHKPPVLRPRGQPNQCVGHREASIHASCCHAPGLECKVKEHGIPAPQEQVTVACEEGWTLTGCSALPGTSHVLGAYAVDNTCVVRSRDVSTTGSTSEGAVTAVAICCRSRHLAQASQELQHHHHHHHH

[2] = molecular target: T2, proprotein convertase subtilisin/kexin type 9 (PCSK9) (human, UniProt Q8NBP7 31-692); experiment: phage spot ELISA
T2 construct: His-tagged full-length PCSK9 in TR-FRET and SPR, biotinylated in phage ELISA; secreted protein is autoprocessed (prodomain plus catalytic/CRD chain starting at S153); also called rec.PCSK9; His-PCSK9
T2 sequence (Q8NBP7 other isoform, or with tags, fused parts or gaps limits assumed): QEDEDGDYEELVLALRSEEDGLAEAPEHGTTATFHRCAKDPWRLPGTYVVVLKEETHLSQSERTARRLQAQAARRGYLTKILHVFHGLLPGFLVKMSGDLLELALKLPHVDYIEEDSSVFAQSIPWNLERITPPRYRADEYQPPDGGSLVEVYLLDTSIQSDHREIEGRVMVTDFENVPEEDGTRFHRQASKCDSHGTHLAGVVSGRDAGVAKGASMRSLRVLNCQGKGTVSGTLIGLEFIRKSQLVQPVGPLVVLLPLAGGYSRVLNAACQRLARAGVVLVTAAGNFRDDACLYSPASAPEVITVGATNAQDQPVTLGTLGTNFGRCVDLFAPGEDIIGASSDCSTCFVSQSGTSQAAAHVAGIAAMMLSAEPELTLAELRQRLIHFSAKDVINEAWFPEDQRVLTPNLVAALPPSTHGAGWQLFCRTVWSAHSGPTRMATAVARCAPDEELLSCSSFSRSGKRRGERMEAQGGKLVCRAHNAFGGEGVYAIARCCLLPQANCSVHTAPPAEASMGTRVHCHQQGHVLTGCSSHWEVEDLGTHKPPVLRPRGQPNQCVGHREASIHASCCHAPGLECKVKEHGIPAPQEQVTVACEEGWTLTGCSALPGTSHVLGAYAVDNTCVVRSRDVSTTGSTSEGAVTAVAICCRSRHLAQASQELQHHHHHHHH

PCSK9Δhelix [3] = molecular target: T1, PCSK9Δhelix; experiment: phage spot ELISA; remark: listed apart in the source
[4] = molecular target: T2, proprotein convertase subtilisin/kexin …; experiment: phage spot ELISA; remark: listed apart in the source
[5] = molecular target: T3, PCSK9 (proprotein convertase subtilisin/kexin type 9), His-tagged, full-length (human, UniProt Q8NBP7 31-692); experiment: TR-FRET competition; competitor EGF(A)-Fc binding to His-PCSK9
T3 construct: Captured by the His tag (SPR Methods 1 and 2), amine-coupled (Method 3), or His-tagged in TR-FRET; also called His-PCSK9
T3 sequence (Q8NBP7 31-692 limits assumed): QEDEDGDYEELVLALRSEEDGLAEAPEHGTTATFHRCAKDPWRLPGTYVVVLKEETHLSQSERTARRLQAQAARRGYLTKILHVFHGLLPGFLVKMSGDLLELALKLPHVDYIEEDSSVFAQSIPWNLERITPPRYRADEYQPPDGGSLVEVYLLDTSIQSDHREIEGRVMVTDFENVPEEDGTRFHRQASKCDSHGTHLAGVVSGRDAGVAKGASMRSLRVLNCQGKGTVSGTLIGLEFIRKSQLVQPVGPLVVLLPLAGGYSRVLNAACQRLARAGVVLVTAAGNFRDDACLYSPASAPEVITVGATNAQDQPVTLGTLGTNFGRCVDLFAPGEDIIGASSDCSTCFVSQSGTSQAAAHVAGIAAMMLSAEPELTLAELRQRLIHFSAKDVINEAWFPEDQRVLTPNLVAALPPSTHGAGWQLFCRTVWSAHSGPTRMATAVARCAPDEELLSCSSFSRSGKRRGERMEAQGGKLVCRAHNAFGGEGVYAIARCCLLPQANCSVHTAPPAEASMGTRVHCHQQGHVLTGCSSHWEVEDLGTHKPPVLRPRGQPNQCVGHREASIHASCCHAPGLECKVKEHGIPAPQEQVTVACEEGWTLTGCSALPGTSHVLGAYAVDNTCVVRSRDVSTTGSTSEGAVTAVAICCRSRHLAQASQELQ

PCSK9Δhelix [6] = molecular target: T4, PCSK9Δhelix (human, UniProt Q8NBP7 31-152; Q8NBP7 168-692); experiment: TR-FRET competition; competitor Ab20 binding to His-PCSK9Δhelix;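 note: readout is anti-His-APC on PCSK9 with anti-Fc-europium on the Fc-tagged ligand, compound incubated 30 min, normalized signal ratio fitted by four-parameter logistic regression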
T4 construct: Made by TEV cleavage of human PCSK9 M1-Q692 with an engineered TEV site; The new N-terminus of the catalytic domain is S-A168; also called His-PCSK9Δhelix; PCSK9 lacking the P' helix
T4 sequence (Q8NBP7 31-152, stated change not applied, chain 1 of 2): as the sequence (prodomain, as listed by the source mutant limits assumed, chain 1 of 2) above
T4 sequence (Q8NBP7 other isoform, or with tags, fused parts or gaps mutant, chain 2 of 2): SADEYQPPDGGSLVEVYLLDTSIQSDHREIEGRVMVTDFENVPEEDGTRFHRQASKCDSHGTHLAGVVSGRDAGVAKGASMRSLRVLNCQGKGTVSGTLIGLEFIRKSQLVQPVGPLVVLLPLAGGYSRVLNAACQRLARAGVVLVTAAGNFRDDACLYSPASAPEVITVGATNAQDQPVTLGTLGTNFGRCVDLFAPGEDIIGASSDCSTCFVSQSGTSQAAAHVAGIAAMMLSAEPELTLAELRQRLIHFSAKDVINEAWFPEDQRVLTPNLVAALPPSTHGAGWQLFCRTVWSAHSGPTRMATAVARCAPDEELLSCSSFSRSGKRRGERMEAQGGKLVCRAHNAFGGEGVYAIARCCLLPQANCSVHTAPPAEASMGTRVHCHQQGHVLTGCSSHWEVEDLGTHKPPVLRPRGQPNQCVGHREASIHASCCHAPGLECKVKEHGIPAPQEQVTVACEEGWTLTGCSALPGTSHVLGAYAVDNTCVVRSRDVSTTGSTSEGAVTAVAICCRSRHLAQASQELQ

Binder: Ac-DLMPWNLVRI-NH2 [Compound 49]
IC50 [5]: > 50 µM
IC50 (PCSK9Δhelix [6]): 49.5 µM

Binder: Ac-DLMPWNLVRIGL-NH2 [Compound 47]
IC50 [5]: > 50 µM
IC50 (PCSK9Δhelix [6]): 12.6 µM

Binder: Ac-DLMPWNLVRIGLL-NH2 [Compound 46]
IC50 [5]: > 50 µM
IC50 (PCSK9Δhelix [6]): 14 µM

Binder: Ac-DLMPWNLVRIG-NH2 [Compound 48]
IC50 [5]: > 50 µM
IC50 (PCSK9Δhelix [6]): 49.5 µM

Binder: Ac-DLMPWNLVRIGLLR-NH2 [Compound 35]
IC50 [5]: > 50 µM
IC50 (PCSK9Δhelix [6]): 4.8 µM

Binder: Ac-DAMPWNLVRIGLLR-NH2 [Compound 44]
IC50 [5]: > 50 µM
IC50 (PCSK9Δhelix [6]): 6.9 µM

Binder: Ac-DLMPANLVRIGLLR-NH2 [Compound 41]
IC50 [5]: > 50 µM
IC50 (PCSK9Δhelix [6]): 49.5 µM

Binder: Ac-DLMPWNLVRIGALR-NH2 [Compound 56]
IC50 [5]: > 50 µM
IC50 (PCSK9Δhelix [6]): 17.1 µM

Binder: Ac-DLMPWNLVRAGLLR-NH2 [Compound 58]
IC50 [5]: > 50 µM
IC50 (PCSK9Δhelix [6]): 49.5 µM

Binder: Ac-DLMAWNLVRIGLLR-NH2 [Compound 42]
IC50 [5]: > 50 µM
IC50 (PCSK9Δhelix [6]): 28.5 µM

Binder: Ac-DLMPWNLVRIGLLA-NH2 [Compound 54]
IC50 [5]: > 50 µM
IC50 (PCSK9Δhelix [6]): 15.4 µM

Binder: Ac-DLMPWNLARIGLLR-NH2 [Compound 60]
IC50 [5]: > 50 µM
IC50 (PCSK9Δhelix [6]): 19.2 µM

Binder: Ac-DLMPWNLVAIGLLR-NH2 [Compound 59]
IC50 [5]: > 50 µM
IC50 (PCSK9Δhelix [6]): 49.5 µM

Binder: Ac-DLMPWNLVRIALLR-NH2 [Compound 57]
IC50 [5]: > 50 µM
IC50 (PCSK9Δhelix [6]): > 49.5 µM

Binder: Ac-DLAPWNLVRIGLLR-NH2 [Compound 43]
IC50 [5]: > 50 µM
IC50 (PCSK9Δhelix [6]): 8.19 µM

Next, values leading:

ELISA (PCSK9Δhelix [1]): 2.09
s/n ratio (PCSK9Δhelix [1]): 18.2
ELISA [2]: 1.25
s/n ratio [2]: 9.44
Binder: SGACVKPCIAGNIIR [SEQ ID NO 388]

ELISA (PCSK9Δhelix [3]): 1.64
s/n (PCSK9Δhelix [3]): 9.01
ELISA [4]: 1.41
s/n [4]: 5.32
Binder: SGGSIPWNLERITPPR [SEQ ID NO 382]

IC50 [5]: > 50 µM
IC50 (PCSK9Δhelix [6]): 49.5 µM
Binder: Ac-PWNLVRIGL-NH2 [Compound 119]

ELISA (PCSK9Δhelix [3]): 0.638
s/n (PCSK9Δhelix [3]): 5.5
ELISA [4]: 0.447
s/n [4]: 3.85
Binder: SGRNGSGYINRGIEIW [SEQ ID NO 380]

ELISA (PCSK9Δhelix [1]): 3.19
s/n ratio (PCSK9Δhelix [1]): 21.3
ELISA [2]: 2.74
s/n ratio [2]: 15.8
Binder: SGGSMPWNLERIFALH [SEQ ID NO 390]

ELISA (PCSK9Δhelix [3]): 0.665
s/n (PCSK9Δhelix [3]): 7.07
ELISA [4]: 0.591
s/n [4]: 6.42
Binder: SGNALWNHDRLT [SEQ ID NO 379]

ELISA (PCSK9Δhelix [1]): 2.88
s/n ratio (PCSK9Δhelix [1]): 20.7
ELISA [2]: 2.62
s/n ratio [2]: 17.5
Binder: SGRCLNHLISGNMNSC [SEQ ID NO 387]

IC50 [5]: > 50 µM
IC50 (PCSK9Δhelix [6]): 49.5 µM
Binder: Ac-WNLVRIGL-NH2 [Compound 120]

ELISA (PCSK9Δhelix [1]): 2.21
s/n ratio (PCSK9Δhelix [1]): 15.1
ELISA [2]: 0.514
s/n ratio [2]: 3.59
Binder: SGCSDLWNLARIYPMC [SEQ ID NO 391]

ELISA (PCSK9Δhelix [1]): 3.23
s/n ratio (PCSK9Δhelix [1]): 14.7
ELISA [2]: 3.16
s/n ratio [2]: 16.5
Binder: SGDLMPWNLVRIGLLR [SEQ ID NO 389]

ELISA (PCSK9Δhelix [1]): 3.07
s/n ratio (PCSK9Δhelix [1]): 8.48
ELISA [2]: 3
s/n ratio [2]: 8.11
Binder: SGCFIPWNLQRIGLLC (not fully specified (C-terminus, bridges); cysteine pairing not given here) [SEQ ID NO 383]

IC50 [5]: > 50 µM
IC50 (PCSK9Δhelix [6]): 1.4 µM
B1: Compound 118 (peptide)
peptide: Pentanoyl-WNLV[hArg]IGLTR-NH2
SMILES: CCCCC(=O)N[C@@H](Cc1c[nH]c2ccccc12)C(=O)N[C@@H](CC(N)=O)C(=O)N[C@@H](CC(C)C)C(=O)N[C@H](C(=O)N[C@@H](CCCCNC(=N)N)C(=O)N[C@H](C(=O)NCC(=O)N[C@@H](CC(C)C)C(=O)N[C@H](C(=O)N[C@@H](CCCNC(=N)N)C(N)=O)[C@@H](C)O)[C@@H](C)CC)C(C)C
notes: also called n-BuC(O)-WNLV(homoR)IGLTR-NH2

ELISA [2]: 0.472
s/n ratio [2]: 3.42
Binder: SGDFIPWNLVRIGLLR [SEQ ID NO 385]

IC50 [5]: > 50 µM
IC50 (PCSK9Δhelix [6]): 49.5 µM
Binder: Ac-DLMPWNAVRIGLLR-NH2 [Compound 61]

IC50 [5]: > 50 µM
IC50 (PCSK9Δhelix [6]): 49.5 µM
Binder: Ac-DLMPWALVRIGLLR-NH2 [Compound 62]

ELISA (PCSK9Δhelix [1]): 1.94
s/n ratio (PCSK9Δhelix [1]): 12.3
ELISA [2]: 1.42
s/n ratio [2]: 9.77
Binder: SGGACPWNLERIGLSC [SEQ ID NO 384]

ELISA (PCSK9Δhelix [3]): 1.75
s/n (PCSK9Δhelix [3]): 4.17
ELISA [4]: 2.87
s/n [4]: 11.1
Binder: SGAGKLDLSG [SEQ ID NO 377]

ELISA (PCSK9Δhelix [3]): 1.64
s/n (PCSK9Δhelix [3]): 7.52
ELISA [4]: 2.49
s/n [4]: 15.5
Binder: SGHASKGMVLSG [SEQ ID NO 381]

IC50 [5]: > 50 µM
IC50 (PCSK9Δhelix [6]): 4.9 µM
B2: Compound 111 (peptide)
peptide: Pentanoyl-WNLVRIGLLR-NH2
SMILES: CCCCC(=O)N[C@@H](Cc1c[nH]c2ccccc12)C(=O)N[C@@H](CC(N)=O)C(=O)N[C@@H](CC(C)C)C(=O)N[C@H](C(=O)N[C@@H](CCCNC(=N)N)C(=O)N[C@H](C(=O)NCC(=O)N[C@@H](CC(C)C)C(=O)N[C@@H](CC(C)C)C(=O)N[C@@H](CCCNC(=N)N)C(N)=O)[C@@H](C)CC)C(C)C

IC50 [5]: > 50 µM
IC50 (PCSK9Δhelix [6]): 7.5 µM
B3: Compound 112 (peptide)
peptide: Pentanoyl-WNLVRIGLTR-NH2
SMILES: CCCCC(=O)N[C@@H](Cc1c[nH]c2ccccc12)C(=O)N[C@@H](CC(N)=O)C(=O)N[C@@H](CC(C)C)C(=O)N[C@H](C(=O)N[C@@H](CCCNC(=N)N)C(=O)N[C@H](C(=O)NCC(=O)N[C@@H](CC(C)C)C(=O)N[C@H](C(=O)N[C@@H](CCCNC(=N)N)C(N)=O)[C@@H](C)O)[C@@H](C)CC)C(C)C

IC50 [5]: > 50 µM
B4: Compound 114 (peptide)
peptide: Pentanoyl-WNLVRIGTLR-NH2
SMILES: CCCCC(=O)N[C@@H](Cc1c[nH]c2ccccc12)C(=O)N[C@@H](CC(N)=O)C(=O)N[C@@H](CC(C)C)C(=O)N[C@H](C(=O)N[C@@H](CCCNC(=N)N)C(=O)N[C@H](C(=O)NCC(=O)N[C@H](C(=O)N[C@@H](CC(C)C)C(=O)N[C@@H](CCCNC(=N)N)C(N)=O)[C@@H](C)O)[C@@H](C)CC)C(C)C

IC50 [5]: > 50 µM
B5: Compound 113 (peptide)
peptide: Pentanoyl-WNLVRIGTTR-NH2
SMILES: CCCCC(=O)N[C@@H](Cc1c[nH]c2ccccc12)C(=O)N[C@@H](CC(N)=O)C(=O)N[C@@H](CC(C)C)C(=O)N[C@H](C(=O)N[C@@H](CCCNC(=N)N)C(=O)N[C@H](C(=O)NCC(=O)N[C@H](C(=O)N[C@H](C(=O)N[C@@H](CCCNC(=N)N)C(N)=O)[C@@H](C)O)[C@@H](C)O)[C@@H](C)CC)C(C)C
